Biological target: TolCΔ2–22 (signal sequence-less mature TolC, His-tagged) (E. coli) (UniProt P02930)
Assay: SDS-PAGE of unheated samples

A stoichiometry N of 3 was found for “TolCΔ2–22 (signal sequence-less mature TolC, His-tagged) (from UniProt P02930 23-493) (natural protein)” in this work.

Source: publication PMC2885749
